# Patent US20260041732A1, “USE OF APELIN FOR THE TREATMENT OF LYMPHEDEMA” (INSTITUT NATIONAL DE LA SANTE ET DE LA RECHERCHE MEDICALE, priority 2022, published 2026)
# B1: APELIN: bioactive peptide apelin, endogenous ligand of APJ; applied to HDLEC as conditioned media from LV-Apelin transduced NIH3T3 or by transduction (protein, listed as Homo sapiens)
# chain: MNLRLCVQALLLLWLSLTAVCGGSLMPLPDGNGLEDGNVRHLVQPRGSRNGPGPWQGGRRKFRRQRPRLSHKGPMPF
# Assays:
# [1] = tested on: Human dermal lymphatic endothelial cells (HDLEC); experiment: Immunoblotting of AKT, ERK and eNOS phosphorylation; format: cell-based; conditions: conditioned media
# Procedure: Human dermal lymphatic endothelial cells (HDLEC) (single donor, juvenile foreskin, Promocell, C-12216, >95% of the cells are CD31 positive and podoplanin positive) were cultured in Endothelial Cell Media MV2 (EGM-MV2, Promocell, C-22121). NIH3T3 were cultured in Dulbecco's modified Eagle's medium (DMEM, Sigma, D6429) supplemented with 10% fetal bovine serum (FBS, Gibco, 10270-06) and 1% penicillin-streptomycin. Endothelial cells were used at passage 3-6 and human fibroblasts were used at passage 4-7. Cells were cultured at 37° C. in a 5% CO2 incubator. Culture medium was changed 3 times a week, and the cells were passaged ⅓. For collecting conditioned media, NIH3T3 were grown in 10 cm dishes, after reaching confluence, medium was removed and the cells were washed once with PBS. NIH3T3 were cultured overnight in 5 mL reduced serum medium optiMEM (Gibco), the medium was then collected and used for experiments. HDLEC were treated with 50% conditioned media/50% MV2-05% FBS.
# Cells were scrapped and lysed in RIPA buffer (RIPA 2X, Biotech RB4476) supplemented with phosphatase inhibitor (PhosSTOP Easypack, Roche0490687001) and protease inhibitors (protease inhibitor cocktail, Sigma Aldrich). Lysates were centrifuged at 13500 g for 10 minutes at 4° C. Supernatants were then collected and mix with Laemmli buffer containing dithiothreitol (DTT 1 mM). Protein were resolved on 4-15% SDS-PAGE gels and transferred to nitrocellulose membrane (Trans-Blot Turbo RTA transfer kit, #1704271, Biorad). Membranes were blocked for 1h at room temperature in 5% BSA-TBS-T (TBS-0.1% Tween 20) and probed with primary antibody overnight at 4° C. Antibody used are the following: Phospho AKT: AKT-p ser473 (CS #4060S), AKT: santa cruz H136 (S8312), Phospho ERK: ERK1/2-p (MAPKp42/44) (Thr202/Thr204) (cell signalling #9106), ERK ERK1/2-(MAPKp42/44) (Thr202/Thr204) (cell signalling #9102), Phospho eNOS (cell signalling #9571S), eNOS (cell signalling #5880S), E2F8 (Abcam, AB109596), VEGFR3 (RID system AF349), Phospho-VEGFR3 (Affinity AF3676), CCBE1 (Sigma SAB1402017).
# After three washes in TBS-T, membranes were probed with HRP-conjugated secondary antibodies at 1/10000 dilution. Signals were visualized with chemiluminescence detection reagent (Sigma) on a Chemidoc (Biorad) digital acquisition system.
# [2] = cited from earlier work
# [3] = tested on: Human dermal lymphatic endothelial cells (HDLEC); experiment: Cell migration, cell junction and cytoskeleton remodeling; format: cell-based
# [4] = tested on: Human dermal lymphatic endothelial cells (HDLEC); experiment: RT-qPCR validation of gene induction; format: cell-based; conditions: RT-qPCR on HDLEC
# Procedure: Total RNA was prepared using RNeasy kit (Qiagen 74106) according to the supplier's instruction. 1 μg of RNA was retro-transcribed using high-Capacity cDNA Reverse Transcription Kit (Thermo Fisher Scientific, 4368813) containing Multi-Scribe Reverse Transcriptase according to the supplier's instruction. Quantitative real-time PCR was performed using OneGreen FAST qPCR premix (Ozyme, OZYA008) on a StepOne Real-time PCR System (Thermofisher Scientific). All samples were analysed in duplicates. Data was normalized relative to HPRT mRNA levels.
# E2F8 = experiment: Chromatin immunoprecipitation (ChIP) with E2F8 antibody; format: cell-based, human; conditions: APELIN-overexpressing HDLEC
# Procedure: Human dermal lymphatic endothelial cells (HDLEC) non transduced or transduced with Apelin Lentivector, were crosslinked for 15 min using 1% formaldehyde directly in the culture medium. 0.125 M of Glycine were then added for 5 min. After two washes with cold PBS, cells were scraped and frozen at −80° C. Cells were lysed to ChIP-IT Express Magnetic Chromatin
# Immunoprecipitation kit (Active Motif 53008). Optimal sonication conditions were determined previously in order to obtain DNA fragments of about 500 bp. Cells were sonicated in 350 μl final volume of Shearing buffer specific to the kit, using Diagenode Bioruptor Sonicator (7 cycles, 30 sec ON, 30 sec OFF in a water bath). DNA concentration was determined using a Nanodrop and 25 μg of chromatin were used by reaction. Experiments were then performed according to the manufacturer protocol. 4 μg of E2F8 antibody (Abcam, AB 109596) were used by ChIP reaction. 10 μl of each sample were kept as Input. Reactions were incubated over night at 4° C. A mock sample without antibody was processed similarly. Prior to qPCR, DNA was purified using the Active Motif Chromatin IP DNA purification kit (58002), and eluted in 50 μl of DNase/RNase free water. 2 μl of purified chromatin was used for qPCR. In some experiments, ChIP reactions were supplemented with 10 ng of Drosophila melanogaster chromatin (spike in chromatin, Active motif, 08221011), and 1 μg of an antibody recognizing H2Av, a Drosophila specific histone variant, (spike in antibody, active motif, 61686), as an internal control for ChIP normalization.
# HDLEC were seeded in 6-well plates at 100 000 cells/well. After 24 h, cells were transduced with 1 mL of Apelin lentivector diluted in 1 mL of OptiMEM Media in the presence of proteamine sulfate at a final concentration of 5 μg/mL. The Control cells (NT) non transduced with the Apelin Lentivector were processed at the same time and following the same protocol; in this case 2 mL of OptiMEM and 5 μg/mL of proteamine sulfate were added to the cells. The media was replaced after 24 h. […]
molecule,measurement,setting,value
B1,eNOS phosphorylation,[1]; HDLEC,observed
same,AKT activation (phosphorylation),[1]; 24 h time course,stimulated Akt phosphorylation after 1 hour
same,ERK activation,[1]; 24 h time course,without major effect
same,AKT activation (phosphorylation),"[1]; 24 h time course, listed as apelin",lesser extent than the phosphorylation induced by VEGF-C
same,plasma apelin half-life,[2],less than five minutes
same,endothelial monolayer integrity,[3],no effect
same,cell junction or cytoskeleton remodeling,[3]; HDLEC,no effect
same,cell migration,[3]; HDLEC,activation of cell migration
same,CCBE1 induction,[4],strongly confirmed
same,E2F8 binding on FLT4,E2F8,no binding
same,E2F8 binding to CCBE1 promoter,E2F8,significantly increased
same,E2F8 binding to E2F1 transcription factor promoter,E2F8,induced
